The text below walks through data of PMC11020753, “Contribution of amino acids in the active site of dipeptidyl peptidase 4 to the catalytic action of the enzyme” (PLOS ONE, 2024).

Substrate in this series: CC(C)C[C@H](NC(=O)[C@@H]1CCCN1C(=O)[C@@H](N)C(C)C)C(=O)O
As to the kind of experiment: purified protein, by the assay type. The conditions noted are these: T = 30 °C, 100 mM Tris-HCl, pH 7.6, substrate concentration 25 μM.

Where [1] appears, read: other: wild type DP4, cleavage of diprotin B as substrate.
[2] abbreviates: other: R125A, cleavage of diprotin B as substrate.

B1: wild type DP4 (Homo sapiens) (protein)
chain: ADSRKTYTLTDYLKNTYRLKLYSLRWISDHEYLYKQENNILVFNAEYGNSSVFLENSTFDEFGHSINDYSISPDGQFILLEYNYVKQWRHSYTASYDIYDLNKRQLITEERIPNNTQWVTWSPVGHKLAYVWNNDIYVKIEPNLPSYRITWTGKEDIIYNGITDWVYEEEVFSAYSALWWSPNGTFLAYAQFNDTEVPLIEYSFYSDESLQYPKTVRVPYPKAGAVNPTVKFFVVNTDSLSSVTNATSIQITAPASMLIGDHYLCDVTWATQERISLQWLRRIQNYSVMDICDYDESSGRWNCLVARQHIEMSTTGWVGRFRPSEPHFTLDGNSFYKIISNEEGYRHICYFQIDKKDCTFITKGTWEVIGIEALTSDYLYYISNEYKGMPGGRNLYKIQLSDYTKVTCLSCELNPERCQYYSVSFSKEAKYYQLRCSGPGLPLYTLHSSVNDKGLRVLEDNSALDKMLQNVQMPSKKLDFIILNETKFWYQMILPPHFDKSKKYPLLLDVYAGPCSQKADTVFRLNWATYLASTENIIVASFDGRGSGYQGDKIMHAINRRLGTFEVEDQIEAARQFSKMGFVDNKRIAIWGWSYGGYVTSMVLGSGSGVFKCGIAVAPVSRWEYYDSVYTERYMGLPTPEDNLDHYRNSTVMSRAENFKQVEYLLIHGTADDNVHFQQSAQISKALVDVGVDFQAMWYTDEDHGIASSTAHQHIYTHMSHFIKQCFSLP
For the protein B1, under setting [1], the Km entry is “(7.2 ± 0.58) · 10^−6 M”; the kcat (as a rule, the number of substrate molecules converted per active site and unit of time at saturation) was 7 s⁻¹; the kcat/Km (in general, the second-order rate constant that governs catalysis at low substrate concentration) is 970000 M⁻¹ s⁻¹.

B2: DP4 variant R125A (Homo sapiens; R125A) (protein)
chain: ADSRKTYTLTDYLKNTYRLKLYSLRWISDHEYLYKQENNILVFNAEYGNSSVFLENSTFDEFGHSINDYSISPDGQFILLEYNYVKQWAHSYTASYDIYDLNKRQLITEERIPNNTQWVTWSPVGHKLAYVWNNDIYVKIEPNLPSYRITWTGKEDIIYNGITDWVYEEEVFSAYSALWWSPNGTFLAYAQFNDTEVPLIEYSFYSDESLQYPKTVRVPYPKAGAVNPTVKFFVVNTDSLSSVTNATSIQITAPASMLIGDHYLCDVTWATQERISLQWLRRIQNYSVMDICDYDESSGRWNCLVARQHIEMSTTGWVGRFRPSEPHFTLDGNSFYKIISNEEGYRHICYFQIDKKDCTFITKGTWEVIGIEALTSDYLYYISNEYKGMPGGRNLYKIQLSDYTKVTCLSCELNPERCQYYSVSFSKEAKYYQLRCSGPGLPLYTLHSSVNDKGLRVLEDNSALDKMLQNVQMPSKKLDFIILNETKFWYQMILPPHFDKSKKYPLLLDVYAGPCSQKADTVFRLNWATYLASTENIIVASFDGRGSGYQGDKIMHAINRRLGTFEVEDQIEAARQFSKMGFVDNKRIAIWGWSYGGYVTSMVLGSGSGVFKCGIAVAPVSRWEYYDSVYTERYMGLPTPEDNLDHYRNSTVMSRAENFKQVEYLLIHGTADDNVHFQQSAQISKALVDVGVDFQAMWYTDEDHGIASSTAHQHIYTHMSHFIKQCFSLP
For B2, under setting [2], the Km entry is “(3.7 ± 0.26) · 10^−4 M”, the kcat was 7.7 s⁻¹ and the kcat/Km was found to be 21000 M⁻¹ s⁻¹.
